This is an account of results in article doi:10.1101/2023.04.25.538313v1.

Substrate in this data set: O=c1ccn([C@@H]2O[C@H](CO[P@@](=O)(O)O[P@@](=O)(O)O[C@H]3O[C@H](CO)[C@@H](O)[C@H](O)[C@H]3O)[C@@H](O)[C@H]2O)c(=O)[nH]1
Kind of data set: purified protein. As to conditions: His-tagged protein in proteoliposomes.

B1: CSLD3 (Arabidopsis thaliana) (protein)
chain: MASNNHFMNSRSNLSTNSDAAEAERHQQPVSNSVTFARRTPSGRYVNYSRDDLDSELGSVDLTGYSVHIPPTPDNQPMDPSISQKVEEQYVSNSLFTGGFNSVTRAHLMEKVIDTETSHPQMAGAKGSSCAVPGCDVKVMSDERGQDLLPCECDFKICRDCFMDAVKTGGMCPGCKEPYRNTDLADFADNNKQQRPMLPPPAGGSKMDRRLSLMKSTKSGLMRSQTGDFDHNRWLFETSGTYGFGNAFWTKDGNFGSDKDGNGHGMGPQDLMSRPWRPLTRKLQIPAAVISPYRLLILIRIVVLALFLMWRIKHKNPDAIWLWGMSVVCELWFALSWLLDQLPKLCPINRATDLNVLKEKFETPTPSNPTGKSDLPGLDMFVSTADPEKEPPLVTSNTILSILAADYPVEKLACYVSDDGGALLTFEAMAEAASFANMWVPFCRKHNIEPRNPDSYFSLKRDPYKNKVKADFVKDRRRVKREYDEFKVRINSLPDSIRRRSDAYHAREEIKAMKLQRQNRDEEIVEPVKIPKATWMADGTHWPGTWINSGPDHSRSDHAGIIQVMLKPPSDEPLHGVSEGFLDLTDVDIRLPLLVYVSREKRPGYDHNKKAGAMNALVRASAIMSNGPFILNLDCDHYIYNSQALREGMCFMMDRGGDRLCYVQFPQRFEGIDPSDRYANHNTVFFDVNMRALDGLMGPVYVGTGCLFRRIALYGFDPPRAKEHHPGFCSCCFSRKKKKSRVPEENRSLRMGGDSDDDEEMNLSLVPKKFGNSTFLIDSIPVAEFQGRPLADHPAVQNGRPPGALTIPRELLDASTVAEAIAVISCWYEDKTEWGSRIGWIYGSVTEDVVTGYRMHNRGWKSVYCVTKRDAFRGTAPINLTDRLHQVLRWATGSVEIFFSRNNAFFASPRMKILQRIAYLNVGIYPFTSFFLIVYCFLPALSLFSGQFIVQTLNVTFLVYLLIISITLCLLALLEIKWSGISLEEWWRNEQFWLIGGTSAHLAAVIQGLLKVVAGIEISFTLTSKSGGEDVDDEFADLYIVKWTSLMIPPITIMMVNLIAIAVGFSRTIYSVIPQWSKLIGGVFFSFWVLAHLYPFAKGLMGRRGRTPTIVYVWSGLVAITISLLWVAINPPAGSTQIGGSFTFP
In the case of B1, the Km (as a rule, the concentration of substrate that gives half-maximal velocity) was determined as 62 µM.
